Experimental data reported in paper doi:10.1101/2020.07.27.223255, “Bro1 stimulates Vps4 activity to promote Intralumenal Vesicle Formation during Multivesicular Body biogenesis” (bioRxiv, 2020).
Changes are numbered by the printed parent chain. In names and notes the source's numbering stands. Each block holds one binder with its values, some of them ahead of it.

Key:
His6-Vps4 [1] = target: T1, His6-Vps4 (S. cerevisiae, UniProt P52917 1-437); experiment: cell-based or functional assay
T1 sequence (looked up): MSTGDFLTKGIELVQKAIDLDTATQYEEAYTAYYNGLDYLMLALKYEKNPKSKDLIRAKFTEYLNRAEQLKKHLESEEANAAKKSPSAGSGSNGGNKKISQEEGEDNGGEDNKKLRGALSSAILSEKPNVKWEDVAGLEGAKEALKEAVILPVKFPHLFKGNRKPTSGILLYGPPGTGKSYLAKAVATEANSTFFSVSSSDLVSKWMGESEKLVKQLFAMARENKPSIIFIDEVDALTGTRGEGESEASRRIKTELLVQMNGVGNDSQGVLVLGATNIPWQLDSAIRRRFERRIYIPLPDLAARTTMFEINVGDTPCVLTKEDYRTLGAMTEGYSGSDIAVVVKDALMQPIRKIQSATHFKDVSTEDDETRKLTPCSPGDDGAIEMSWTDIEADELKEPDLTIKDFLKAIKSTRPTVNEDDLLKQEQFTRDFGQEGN

His6-Vps4 [2] = target: T1, His6-Vps4; experiment: pull-down; His6-Vps4 (10 μg) or His6-MIT on Ni-NTA agarose; 6 μg Bro1V or mutants in ATPase buffer + 0.02% Tween20, 1 hour at 30°C; four washes NiA buffer with 10 mM imidazole; eluted with 200 mM imidazole; protein stain and anti-Bro1 immunoblot; conditions: both partners purified

Vps4 (0.5μM) ATPase activity with titration of Bro1V (10nM-8μM): maximal stimulation over basal activity (Vps4 of the ATPase assay came from GST-Vps4) (His6-Vps4 [1]): 2.6 fold
B1: Bro1 V domain (Bro1V, aa 370-709), GST tag removed (domain or fragment, S. cerevisiae, UniProt P48582 370-709, looked up)
chain: DVYEKESIYSEEKATLLRKQVEETETANLEYSSFIEFTNLPRLLSDLEKQFSDGNIFSNTDTQGQLMRDQIQTWCKFIQTNEFRDIEEQMNKIVFKRKQILEILSALPNDQKENVTKLKSSLVAASNSDEKLFACVKPHIVEINLLNDNGKIWKKFDEFNRNTPPQPSLLDIDDTKNDKILELLKQVKGHAEDLRTLKEERSRNLSELRDEINNDDITKLLIINKGKSDVELKDLFEVELEKFEPLSTRIEATIYKQSSMIDDIKAKLDEIFHLSNFKDKSSGEEKFLEDRKNFFDKLQEAVKSFSIFASDLPKGIEFYDSLFNMSRDLAERVRVAKQTE

binding result (His6-Vps4 [2]): binds
B2: Bro1V^M4 (V505A, H508A, I512A), GST tag removed (domain or fragment, S. cerevisiae, UniProt P48582 370-709, looked up)
chain: B1 chain with V136A, H139A, I143A
notes: Bro1 V domain, S. cerevisiae, aa 370-709, mutant M4; source: E. coli BL21-DE3, purified (Glutathione Sepharose 4B, AcTEV protease to remove GST, Superdex200 size exclusion)

binding result (His6-Vps4 [2]): binds
B3: Bro1V^M10 (K481D), GST tag removed (domain or fragment, S. cerevisiae, UniProt P48582 370-709, looked up)
chain: B1 chain with K112D
notes: Bro1 V domain, S. cerevisiae, aa 370-709, mutant M10; source: E. coli BL21-DE3, purified (Glutathione Sepharose 4B, AcTEV protease to remove GST, Superdex200 size exclusion)

binding result (His6-Vps4 [2]): binds
B4: Bro1V^M9 (T587D), GST tag removed (domain or fragment, S. cerevisiae, UniProt P48582 370-709, looked up)
chain: B1 chain with T218D
notes: Bro1 V domain, S. cerevisiae, aa 370-709, mutant M9; source: E. coli BL21-DE3, purified (Glutathione Sepharose 4B, AcTEV protease to remove GST, Superdex200 size exclusion)

binding result (His6-Vps4 [2]): binds
B5: Bro1V^M8 (E686A, L691D), GST tag removed (domain or fragment, S. cerevisiae, UniProt P48582 370-709, looked up)
chain: B1 chain with E317A, L322D
notes: Bro1 V domain, S. cerevisiae, aa 370-709, mutant M8; source: E. coli BL21-DE3, purified (Glutathione Sepharose 4B, AcTEV protease to remove GST, Superdex200 size exclusion)
